Experimental findings from patent publication EP1655308B1, “Adducts of soluble ovalbumin with trivalent iron polyalcohol complexes and method to produce them” (Tedec-Meiji Farma, S.A., priority 2004, dated 2006) are described below.

The data set can be described thus: Solubility of the lyophilised adduct at 1 %. To be noted: lyophilised powder, 1 % solution. The class given is physicochemical. Here is the method: a) Iron - manitol complex: 31.5 g of FeCl3·6H2O are dissolved jointly with 7.9 g of manitol in 400 ml of water. A solution of 18 g of NaOH in 48 ml of water is added under vigorous stirring. It is heated to 95° C, letting it spontaneously cool down to ambient temperature. b) Treated ovalbumin: 37.50 g of commercial ovalbumin in powder form are dispersed under vigorous stirring in 180 ml of water. A solution of 30 g of NaOH in 550 ml of water is heated separately to 65° C. The protein dispersion is added to the alkaline solution and is digested at 65° C for 15 minutes, with the pH being subsequently adjusted to a value between 8.5 - 10 with 6M HCl. While keeping the solution at 50° C and pH 8.5 - 10, Esperase® (NOVO-NORDISK) is added in a quantity of 1 ‰ of the initial albumin (37.5 mg), proteolytically digesting it, under gentle stirring, for 2 hours at 50° C without any pH correction. Once this time has elapsed, the spontaneous pH is 8.5. The solution is heated to 80° C in order to deactivate the remaining enzymatic activity, the pH is adjusted to 10 with 10M NaOH and, when the temperature goes down to 65° C, 2 ml/l of 30 % w/v H2O2 are added. […]

In the case of “Adduct between treated ovalbumin and iron (III) - manitol complex [Example 1]”, the 1 % solubility result is on record as “limpid”.
